According to patent publication US20060233785A1, “Immunointeractive molecules and uses thereof” (priority 2001, published 2006):
Changes are numbered by the printed parent chain. Blank lines part the entries; values can stand above or below the molecule they belong to.

Experiments:
[1] = Immunisation of mice with rHev b 6, serum ELISA; type: in vivo, BALB/c mice; settings: eight mice; 20 μg intraperitoneally
Description: Monoclonal antibody production followed established protocols (Sutherland et al, 2002, supr; Goding, J. Monoclonal Antibodies: principles and practice 3rd ed. London: Academic Press. 492, 1996). Approval was obtained from the Monash University Animal Ethics Committee. Eight BALB/c mice were immunised with 20 μg rHev b 6 in 100 ill of PBS, intraperitoneally, three times at three weekly intervals. The first injection was given with Complete Freund's Adjuvant (100 μl; Sigma) and the two subsequent injections with Incomplete Freund's Adjuvant (100 μl; Sigma). Mice were finally boosted with 20 μg rHev b 6 in 200 μl PBS intraperitoneally 3 days before being sacrificed. Hybridomas were generated by fusing immune mouse spleen cells with murine myeloma cells (line X-63.Ag8.653; 17) and supernatants were screened for antibody to rHev b 6 and glove extract by performing a duplicate ELISA as described below. Positive hybridomas were expanded and cloned by limiting dilution.

[2] = tested on: IgE from latex allergic subjects; experiment: Western blotting of rHev b 6 forms with IgE of patient sera (Example 8); type: binding, human
Description: FIG. […] Gels were either stained with Coomassie Brilliant Blue (1) or transferred to nitrocellulose. Strips with transferred protein were incubated with the Hev b 6-specific mAb 1A5.4 and binding detected (2). Strips with transferred protein were also incubated with sera from two latex allergic, Hev b 6 sensitized subjects (3 and 4) and one non-latex-allergic, atopic subject (5). The presence or absence of IgE binding was then detected. […] Plates were coated with rHev b 6 and sulphonated rHev b 6 and the presence or absence of IgE-binding detected. As a positive control the Hev b 6-specific mAb 1A5 was used. NB indicates no binding of IgE was detected.
Four μg of rHev b 6 or sulphonated rHev b 6 were separated on 16% sodium dodecyl sulphate (SDS) polyacrylamide gels with 4% stacking gel. Electrophoresis was performed at 125V for 2 h on a Novex Xcell II Mini-Cell system (Novex, CA, USA). Proteins were visualized with Coomassie Brilliant Blue R-250 (Sigma). The separated proteins were electrophoretically transferred to nitro-cellulose membranes (BA 0.45μ, Schleicher and Schuell, Dassel, Germany) at 25V for 1 hr in transfer buffer. Membranes were blocked for 1 h at RT in 10% skim milk powder (SMP) in PBS, washed once in 0.05% Tween20/PBS and twice in PBS. Washed membranes were incubated for 1 hour at RT with either culture supernatant containing the Hev b 6-specific mAb 1A5.4, diluted 1 in 100 in 1% SMP/PBS or human serum, diluted 1 in 5 in 1% SMP/PBS. For mAb detection membranes were washed as above and incubated for 1 h at RT with goat HRP-conjugated anti-mouse Ig (Silenus), diluted 1 in 2000 in 1% SMP/PBS. For IgE detection, membranes were incubated for 1 h at RT with rabbit anti-human IgE (Dako, Denmark) at 1 in 1000 dilution, followed by swine anti-rabbit IgG-HRP conjugate (Promega) at 1 in 1000 dilution. After washing, the binding of 1A5.4 mAb and patient serum IgE to rHev b 6 was detected using hydrogen peroxide/diaminobenzidine solution.

[3] = tested on: IgE binding to rHev b 5; experiment: Non-specific inhibition assay: IgE binding to rHev b 5; design: species or system human; settings: serum of latex-allergic, Hev b 5 positive subject (data not shown)
Description: To confirm the lack of IgE reactivity of mutant rHev b 6, inhibition ELISA were performed. In these assays, IgE binding to rHev b 6 was inhibited by preincubation of sera from latex allergic, Hev b 6 reactive subjects with either rHev b 6 or mutant rHev b 6 over a range of concentrations. To determine the level of non-specific inhibition inherent in such an assay, an initial non-specific inhibition assay was performed. The serum of a latex-allergic, Hev b 5 positive subject was incubated with rHev b 6 and mutant rHev b 6 and then the ability of IgE from this serum to bind rHev b 5 in an ELISA was measured. When this assay was undertaken, binding of IgE to rHev b5 was inhibited at a maximum of 20% by rHev b 6 and mutant rHev b 6 (data not shown).

[4] = tested on: rHev b 6-specific serum IgE; experiment: Immunoblotting detecting rHev b 6-specific serum IgE (Example 3); type: binding, human; settings: sera from patients 1, 4 and 5; prohevein band around 20 kDa
Description: FIG. 4 is an image of immunoblotting detecting rHev b 6-specific serum IgE. rHev b 6 was subjected to electrophoresis under reducing conditions on a 16% SDS PAGE minigel and transferred to a nitrocellulose membrane. After blocking with skim milk powder, the membrane was incubated with serum from latex allergic and non-allergic subjects (1:5 dilution). Antibody binding was detected by incubation with rabbit anti-human IgE, swine anti-rabbit immunoglobulins-HRP and 4-chloro-1-naphthol as substrate. M: molecular mass markers; C: Coomassie-stained gel; lane 1: 1A5.4.3 monoclonal antibody; lane 2: P1 serum; lane 3: P4 serum; lane 4: P5 serum; lane 5: non-latex-allergic serum; lane 6: no serum.
Hybridoma supernatants and patient sera were tested for reactivity with LAL, NAL, glove extract, rHev b 6 and hevein by 16% SDS-PAGE and immunoblotting as described previously (Sutherland et al., 2002, supra).

[5] = tested on: Hev b 6-specific mAb 1A5.4; experiment: Inhibition ELISA: mAb 1A5.4 binding to rHev b 6; design: species or system mouse; settings: FIG. 8A
Description: Inhibition ELISA were carried out to confirm the lack of IgE reactivity of mutant rHev b 6. Various concentrations of mutant rHev b 6 and rHev b 6, ranging from 0.0016 μg/ml to 125 μg/ml were preincubated with patient sera before the sera were used in ELISA to measure IgE binding to rHev b 6. Incubation of sera with KLH was used as a negative control. Values are presented as percent inhibition±standard deviation. (A) The Hev b 6-specific mAb 1A5.4 was incubated with KLH, mutant rHev b 6 and rHev b 6 and mAb binding to rHev b 6 detected. Sera from three latex-allergic, Hev b 6 sensitised subjects A7 (B), A6 (C) and A8 (D) were incubated with KLH, mutant rHev b 6 and rHev b 6 and IgE binding to rHev b 6 detected. The horizontal line indicates the level below which inhibition was considered to non-specific.
In order to confirm the ability of the mutant rHev b 6 to inhibit Ab binding, rHev b 6 and mutant rHev b 6 were used to inhibit binding of the Hev b 6-specific mAb 1A5.4 to rHev b 6 (FIG. 8A).

[6] = non-reducing SDS-PAGE, sera of latex allergic subjects
[7] = reducing SDS-PAGE (data not shown)

maximum inhibition of IgE binding to rHev b5 (non-specific) [3]: 20%
inhibition of mAb 1A5.4 binding to rHev b 6 [5]: comparable inhibition
B1: rHev b 6: recombinant Hev b 6 (prohevein) expressed in E. coli from pPROEX-HTa with 6-His tag (protein)
chain: EQCGRQAGGKLCPNNLCCSQWGWCGSTDEYCSPDHNCQSNCKDSGEGVGGGSASNVLATYHLYNSQDHGWDLNAASAYCSTWDANKPYSWRSKYGWTAFCGPVGAHGQSSCGKCLSVTNTGTGAKTTVRIVDQCSNGGLDLDVNVFRQLDTDGKGYERGHITVNYQFVDCGDSFNPLFSVMKSSVIN
modifications: left off: small tags and cut ends
notes: recombinant Hev b 6 (prohevein) expressed in E. coli from pPROEX-HTa with 6-His tag
number of immunised mice whose serum reacted with glove extract by ELISA [1]: seven
number of immunised mice with strong polyclonal immune response to rHev b 6 [1]: eight
IgE reactivity in Western blotting [2, 6]: reactive
IgE reactivity in Western blotting [2, 7]: reactive
serum IgE reactivity by Western blotting [4]: all showed reactivity

maximum inhibition of IgE binding to rHev b5 (non-specific) [3]: 20%
inhibition of mAb 1A5.4 binding to rHev b 6 [5]: comparable inhibition
B2: mutant rHev b 6: rHev b 6 with cysteine to alanine substitution at amino acid 3 of the mature protein (protein)
chain: B1 chain with C3A
modifications: left off: small tags and cut ends
notes: rHev b 6 with cysteine to alanine substitution at amino acid 3 of the mature protein

B3: sulphonated rHev b 6: purified rHev b 6 sulphonated in sulphonation buffer to improve solubility (protein)
chain: B1 chain
modifications: left off: small tags and cut ends
IgE reactivity in Western blotting [2, 6]: failed to react
IgE reactivity in Western blotting [2, 7]: reactive
